Results from the supplement of paper PMC11246515.
± gives the standard deviation of the averaged measurements.

Assay: total protein half-life in vivo (active degradation + dilution); higher = more stable protein
[1] = E. coli NCM3722 delta-clpP delta-lon delta-hslV, growth: N-lim chemostat, doubling time 6 h
[2] = E. coli NCM3722 delta-clpP, growth: N-lim chemostat, doubling time 6 h
[3] = E. coli NCM3722 delta-hslV, growth: N-lim chemostat, doubling time 6 h
[4] = E. coli NCM3722 delta-lon, growth: N-lim chemostat, doubling time 6 h
[5] = E. coli NCM3722 delta-smpB, growth: N-lim chemostat, doubling time 6 h
[6] = wild type E. coli NCM3722, growth: C-lim chemostat, doubling time 3 h
[7] = wild type E. coli NCM3722, growth: C-lim chemostat, doubling time 6 h
[8] = wild type E. coli NCM3722, growth: C-lim chemostat, doubling time 12 h
[9] = wild type E. coli NCM3722, growth: N-lim chemostat, doubling time 6 h
[10] = wild type E. coli NCM3722, growth: N-lim chemostat, doubling time 12 h
[11] = wild type E. coli NCM3722, growth: P-lim chemostat, doubling time 6 h
[12] = wild type E. coli NCM3722, growth: P-lim chemostat, doubling time 12 h

Sequence	total protein half-life in vivo [1]	total protein half-life in vivo [2]	total protein half-life in vivo [3]	total protein half-life in vivo [4]	total protein half-life in vivo [5]	total protein half-life in vivo [6]	total protein half-life in vivo [7]	total protein half-life in vivo [8]	total protein half-life in vivo [9]	total protein half-life in vivo [10]	total protein half-life in vivo [11]	total protein half-life in vivo [12]
MVKSQPILRYILRGIPAIAVAVLLSACSANNTAKNMHPETRAVGSETSSLQASQDEFENLVRNVDVKSRIMDQYADWKGVRYRLGGSTKKGIDCSGFVQRTFREQFGLELPRSTYEQQEMGKSVSRSNLRTGDLVLFRAGSTGRHVGIYIGNNQFVHASTSSGVIISSMNEPYWKKRYNEARRVLSRS [P0AFV4]	2.68 ± 0.98 h	2.09 ± 0.79 h	2.61 ± 1.4 h	2.34 ± 0.085 h	2.33 ± 0.45 h	1.02 ± 0.41 h	3.38 ± 0.45 h	7.8 ± 1.4 h	2.19 ± 1.5 h	4.29 ± 1.6 h	3.39 ± 0.15 h	4.64 ± 0.49 h
MESIEQQLTELRTTLRHHEYLYHVMDAPEIPDAEYDRLMRELRELETKHPELITPDSPTQRVGAAPLAAFSQIRHEVPMLSLDNVFDEESFLAFNKRVQDRLKNNEKVTWCCELKLDGLAVSILYENGVLVSAATRGDGTTGEDITSNVRTIRAIPLKLHGENIPARLEVRGEVFLPQAGFEKINEDARRTGGKVFANPRNAAAGSLRQLDPRITAKRPLTFFCYGVGVLEGGELPDTHLGRLLQFKKWGLPVSDRVTLCESAEEVLAFYHKVEEDRPTLGFDIDGVVIKVNSLAQQEQLGFVARAPRWAVAFKFPAQEQMTFVRDVEFQVGRTGAITPVARLEPVHVAGVLVSNATLHNADEIERLGLRIGDKVVIRRAGDVIPQVVNVVLSERPEDTREVVFPTHCPVCGSDVERVEGEAVARCTGGLICGAQRKESLKHFVSRRAMDVDGMGDKIIDQLVEKEYVHTPADLFKLTAGKLTGLERMGPKSAQNVVNALEKAKETTFARFLYALGIREVGEATAAGLAAYFGTLEALEAASIEELQKVPDVGIVVASHVHNFFAEESNRNVISELLAEGVHWPAPIVINAEEIDSPFAGKTVVLTGSLSQMSRDDAKARLVELGAKVAGSVSKKTDLVIAGEAAGSKLAKAQELGIEVIDEAEMLRLLGS	6.33 ± 0.46 h	5.67 ± 0.88 h	5 ± 0.61 h	5.11 ± 0.22 h	4.28 ± 0.047 h	2.8 ± 0.23 h	5.68 ± 1.1 h	9.65 ± 0.5 h	4.64 ± 0.15 h	8.04 ± 0.3 h	4.92 ± 0.57 h	8.66 ± 0.66 h
MDTELLKTFLEVSRTRHFGRAAESLYLTQSAVSFRIRQLENQLGVNLFTRHRNNIRLTAAGEKLLPYAETLMSTWQAARKEVAHTSRHNEFSIGASASLWECMLNQWLGRLYQNQDAHTGLQFEARIAQRQSLVKQLHERQLDLLITTEAPKMDEFSSQLLGYFTLALYTSAPSKLKGDLNYLRLEWGPDFQQHEAGLIGADEVPILTTSSAELAQQQIAMLNGCTWLPVSWARKKGGLHTVVDSTTLSRPLYAIWLQNSDKNALIRDLLKINVLDEVY [P0A8R9]	5.38 ± 0.37 h	4.82 ± 0.081 h	4.553 ± 0.02 h		4.1 ± 0.12 h	3.05 ± 0.072 h	5.676 ± 0.025 h	9.53 ± 0.73 h	4.72 ± 0.46 h	7.65 ± 0.25 h	6.13 ± 0.24 h	11.7 ± 2 h
MDLASLRAQQIELASSVIREDRLDKDPPDLIAGADVGFEQGGEVTRAAMVLLKYPSLELVEYKVARIATTMPYIPGFLSFREYPALLAAWEMLSQKPDLVFVDGHGISHPRRLGVASHFGLLVDVPTIGVAKKRLCGKFEPLSSEPGALAPLMDKGEQLAWVWRSKARCNPLFIATGHRVSVDSALAWVQRCMKGYRLPEPTRWADAVASERPAFVRYTANQP		5.52 ± 0.25 h	4.58 ± 0.4 h	4.952 ± 0.015 h	4.62 ± 0.2 h	3.05 ± 0.12 h	6.09 ± 0.24 h	11.3 ± 0.85 h	5.08 ± 0.14 h	8.84 ± 0.67 h	5.3 ± 0.39 h	9.801 ± 0.042 h
MISDIRKDAEVRMDKCVEAFKTQISKIRTGRASPSLLDGIVVEYYGTPTPLRQLASVTVEDSRTLKINVFDRSMSPAVEKAIMASDLGLNPNSAGSDIRVPLPPLTEERRKDLTKIVRGEAEQARVAVRNVRRDANDKVKALLKDKEISEDDDRRSQDDVQKLTDAAIKKIEAALADKEAELMQF [P0A805]	4.75 ± 0.095 h	4.0455 ± 0.00085 h	4.18 ± 0.071 h	5.16 ± 0.078 h	3.87 ± 0.05 h	2.851 ± 0.0093 h	4.84 ± 0.37 h	8.3 ± 0.69 h	3.38 ± 0.24 h	5.74 ± 0.96 h	5.04 ± 0.18 h	9.21 ± 0.22 h
MAMHLNENLDDNGEMHDINVTPFIDVMLVLLIIFMVAAPLATVDVKVNLPASTSTPQPRPEKPVYLSVKADNSMFIGNDPVTDETMITALNALTEGKKDTTIFFRADKTVDYETLMKVMDTLHQAGYLKIGLVGEETAKAK [P0ABV2]	2.68 ± 0.35 h	2.74 ± 0.56 h			0.61 h	1.34 ± 0.17 h	0.847 ± 0.64 h	1.88 ± 0.74 h	1.12 h		1.01 h	2.15 h
MQKFDTRTFQGLILTLQDYWARQGCTIVQPLDMEVGAGTSHPMTCLRELGPEPMAAAYVQPSRRPTDGRYGENPNRLQHYYQFQVVIKPSPDNIQELYLGSLKELGMDPTIHDIRFVEDNWENPTLGAWGLGWEVWLNGMEVTQFTYFQQVGGLECKPVTGEITYGLERLAMYIQGVDSVYDLVWSDGPLGKTTYGDVFHQNEVEQSTYNFEYADVDFLFTCFEQYEKEAQQLLALENPLPLPAYERILKAAHSFNLLDARKAISVTERQRYILRIRTLTKAVAEAYYASREALGFPMCNKDK	6.13 ± 0.15 h	6.28 ± 1.2 h	6.72 ± 0.52 h	6.54 ± 0.34 h	4.88 ± 0.31 h	3.4 ± 0.69 h	6.44 ± 0.24 h		6.04 ± 0.12 h		6.78 ± 1.4 h	13.3 ± 0.41 h
MSIRIIPQDELGSSEKRTADMIPPLLFPRLKNLYNRRAERLRELAENNPLGDYLRFAALIAHAQEVVLYDHPLEMDLTARIKEASAQGKPPLDIHVLPRDKHWQKLLMALIAELKPEMSGPALAVIENLEKASTQELEDMASALFASDFSSVSSDKAPFIWAALSLYWAQMANLIPGKARAEYGEQRQYCPVCGSMPVSSMVQIGTTQGLRYLHCNLCETEWHVVRVKCSNCEQSGKLHYWSLDDEQAAIKAESCDDCDTYLKILYQEKDPKIEAVADDLASLVLDARMEQEGYARSSINPFLFPGEGE		4.49 ± 0.13 h	3.54 ± 0.26 h	4.36 ± 1.1 h	2.78 ± 0.7 h	1.81 ± 0.24 h	3.48 ± 0.15 h	6.07 ± 2.6 h	3.56 ± 0.28 h	4.72 ± 0.75 h	4.06 ± 0.14 h	7.84 ± 0.28 h
